The values that follow come from the nanobody polyreactivity screen of Harvey et al. (2022).

A short description of this data set: yeast display, Sf9 membrane polyspecificity reagent, FACS + sequencing; frameworks hold sequencing errors. A digest of the protocol:
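After 36–48 hours of galactose induction, yeast (Saccharomyces cerevisiae BJ5465) displaying a synthetic nanobody library were stained at 4 °C for 1 hour with 10% biotinylated, detergent-solubilized Sf9 membrane reagent. Streptavidin microbeads enriched the stained cells before FACS sorting into low and high (top ~1%) gates on anti-HA and streptavidin fluorescence. Each clone's polyreactivity label reflects its gate of origin.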
For “QVQLEESGVGLVQAGGSLRLSCAASGYTFDYYDMAWYRQAPGKERELVAAISCSGGRTYYADSVKGRFTISRDNAKNTVYLQMNSLKPEDTAVYYCNTRYGALGKGGMDYWGQGTQVTVSS”, the “polyreactivity (PSR sort gate)” value is recorded as “high polyreactivity”.
Turning to “QVQLVESGGGLVQAGGSLRLSCAASGGTFPAYAMGWYRQAPGKERELVASISDDDSTYYADSVKGRFTISRDNAKNTVYLQMNSLKPEDTAVYYCNVEYWYYPSVEYYWTAYDYWGQGTQVTVSS”, the “polyreactivity (PSR sort gate)” value is listed as “low polyreactivity”.
Consider “QVQLVESGGGLVQAGGSLRLSCAASGFTFQFYDMGWYRQAPGTEREFVATITSSGGSTYYADSVKGRFTISRDNAKNTVYLQMNSLKPEDPAVYYCANDKLFFYRVGSDYWGQGTQVTVSS”, for which the “polyreactivity (PSR sort gate)” value was “low polyreactivity”.
For the sequence “QVQLVESGGGLVQAGGSLRLSCAASGRIFTGYALGWYRQAPGKERELVAAISRGGSTNYADSVKGRFTISRDNAKNTVYLQMNSLKPEDTAVYYCAAGVHWDRGDYWGQGTQVTVSS”, the “polyreactivity (PSR sort gate)” value is “low polyreactivity”.
As for “QVQLVESGGGLVQAGGSLRLSCAASGFTFEGNAMGWYRQAPGKERELVAAISSNGGRTYYADSVKGRFTISRDNAKNTVYLQMNSLKPEDTAVYYCNALRAYSGPDYDYYHGRRYDYWGQGTQVTVSS”, the “polyreactivity (PSR sort gate)” value was “low polyreactivity”.
In the case of “QVQLVESGGGLVQAGGSLSLSCAASGSIFGENAKGWYRQAPGKERELVAAITWGGTSTYYADSVKGRFTISRDNAKNTVYLQMNSLKPEDTAVYYCNTPRYVRRQGVKRYDYWGQGTQVTVSS” it was “low polyreactivity”; in that of “QVQLVESGGGLVQAGGSLRLSCAASGRTLYYNPMGWYRQAPGKEREFVAAISYSGGGTYYADSVKGRFTISRDNAKNTVYLQMNSLKPEDTAVYYCNARIRRPYRVTAEYDYWGQGTQVTVSS”, “high polyreactivity”.
In the case of “QVHLVESGGGLVQAGGSLRLSCAASGITFTRYNMGWYRQAPGKERELVASIRRSGSTNYADSVKGRFTISRDNAKNTVYLQMNSLKPEDTAVFYCAAVNYGYPKPYDYWGQGTQVTVSS” it was “high polyreactivity”; in that of “QVQLVESGGGLLQAGGSLRISCAASGITFVYYVMGWYRQAPRKERELVAGISSGGSTYYADSVKGRFTISRDNAKNTVYLQMISLKPEDTAVYYCNAVDTYGLWRRYNYWGQGTQVTVSS”, “high polyreactivity”; in that of “QVQLVESCGGLVQAGGSLRLSCAASGSTYAMGWYRQAPGKERELVASITSRGGSTYYADSVKGRFTISRDNAKNTVYLQMNSLKPEDTAVYYCNRVYRYPYNYWGQGTQVTVSS”, “high polyreactivity”.
With “QVQLVESGGGLVQAGGSLRLSCAASGYIFQYNAMGWYRQAPGKERELVAAISRGGRTNYADSVKGRFTISRDNAKNTVYLQMNSLNPEDTAVYFCAAKRPWGYYPWSTQTGDYWGQGTQVTVSS”, the “polyreactivity (PSR sort gate)” value was “high polyreactivity”.
With “QVQLVESGGGLVQAGRTLRLRCAASVSTVPYAMGWYSPAPGKERELVAAISKSAGRSYYADYVKGRFTISRENAKNTVYLQMNSLKPEDTAVYYCAARQSYYGHDYWGQGTQVTVSS”, the “polyreactivity (PSR sort gate)” value was “high polyreactivity”.
The same measure for “QVQLVESGGGLVQAGGSLRLSCAASGFIFTYYAMGWYRAAPGKERELVAAIRGSGGRTYYADSVKGRFTISRDNAKNTVYLQMNSLKPEDTAVYYCTADPTWFGYVYYQYDYWGQGTQVTVSS”: “low polyreactivity”; for “QVQHVESGGGLVQAGGSLRLSCAASGRIISYNAMGWYRQAPGKERELVAAISWGGGSTYYADSVKGRFTISRDNAKNTVYLQMNSLKPEDTAVYYCAKGWYRIKRNDYWGQGTQVTVSS”: “low polyreactivity”; for “QVQLVESGGGLVQAGGSLRLSCAASGSIMGWSRQAPGTERELVAAISRGGSTYYADSVKGRFTISRDNAKNTVYLQMNSLKPEDTAVYYCAAKTGGSRSRFEYWGQGTQVTVSS”: “high polyreactivity”.
For “QVQLVESGGGLVQAGGSLRLSCAASGSTFSRYTMGWYRQAPGKERELVAAISYRGGSTYYADSVKGRFTISRDNAKNTVYLQMNSLKPEDTAVYYCAAEYRVEGSDYDYWGQGSQVTVSS”, the “polyreactivity (PSR sort gate)” value was “low polyreactivity”.
With “QVHLVESGGGLVQAGGSLRLSCAASGSTFKRNAMGWYRQAPGKERELVAAITQRGGRTYYADSVKGRFTISRDNAKNTVYLQMNSLKPEDTAVYYCAVDSQTANDYDYWGQGTEVTVSS”, the “polyreactivity (PSR sort gate)” value is recorded as “low polyreactivity”.
Take “QVQLVESGGGLVQAGGSLRLSCGASGRIFGPYTMGWARQGPGKERELVARISRRGGSTYYADSVKGRFTISRDNAKNTVYLQMNSLKPEDTAVYYCARSQAVYDGWFAKFGYWGQGTQVTVSS”: the “polyreactivity (PSR sort gate)” value is listed as “low polyreactivity”.
As to “QVQHVESGGGLDQAGGSLRLSCAASGFIFYDYMGWDRQAPGKQRELVAVISYSGSSTNYAYSVKGRFTITRDNAKMTVYLQINSLKPEDTAVYYWAARIVNGWDYDFWGQGSQVTVSS”, the “polyreactivity (PSR sort gate)” value is on record as “low polyreactivity”.
As for “QVQHVESGGGLVQAGGSLRLSCAASGSIFRYYTMGWYRQAPGKERELVAAISYSGGRTYYADSVKGRFTISRDNAKNTVYLQMNSLKPEDTAVYYCAAKLLQLRGRGYEYWGQGTQVTVSS”, the “polyreactivity (PSR sort gate)” value is recorded as “high polyreactivity”.
Take “QVQLVESGGGLVQAGGSLRLSCAASGLTLYFYVMGWYRQAPGKERELVAAISSTGSTYYADSVKGRFSISRDNAKNTVYLQMNSLKPEDTAVYYCAARKRGWYGYWGQGTQVTVSS”: the “polyreactivity (PSR sort gate)” value is reported as “high polyreactivity”.
Consider “QVQLHESGGGLVQAGGSLRLSCAASGTISYAGPMGWYRQAPGTEREFVAGIGVGSNTNYADSVKGRYTIIRDNAKNTVYLQMNSLKPEDTAVYYCAVGGYAPLGRPYWGQGTQVTVSS”, for which the “polyreactivity (PSR sort gate)” value is “low polyreactivity”.
For “QVQLVESGGGLVQAGGSLRLSCAASGSTFVTNAMGWYRQAPGKERELVAAITSGAGTYYADSVKGRFTISRDNAKNTVYLQMNSLKPEDTAVYYCAARRYYSRGRYRFGYWGQGTQVTVSS”, the “polyreactivity (PSR sort gate)” value is listed as “high polyreactivity”.
Regarding “QVQLVESGGGLVQAGGRLRLICAASGRIFYRNAMGWYRQAPGKERELVAAISYSGGRTYYADSVKGRFTISRDIAKYTVYLQMNRLKPEDTAVYYCAVYGYHEGGYWGQVTQVTVSS”, the “polyreactivity (PSR sort gate)” value is “high polyreactivity”.
Regarding “QVQLVESGGGLVQAGGSLRLSCAASGSIFFHYAMGWYIQAPGKERELVAAITWDGGSTYYADSVKGRFTISRDNAKNTVYLQMNSLKPEDTAVYYCNADQDLSTDEDYWGQGTQVTVSS”, the “polyreactivity (PSR sort gate)” value is given as “low polyreactivity”.
For the sequence “QVQLVESGGGLVQAGGSLRLSCAASGLIFWFYAMGWYRQAPGKERELVAAISGDGDSTYYADSVKGRFTISRDHAKNTVYLQMNSLKPEDTAVYYCAAEWDPVFATDEDDYWGQGTQVTVSS”, the “polyreactivity (PSR sort gate)” value is on record as “low polyreactivity”.
In the case of “QVQLHESGGGLVQAGGSLRRSCAPSGTISYAGPMGWYRQAPGKEREFVAGIGVGSNTNYADSVKGRYTIIRDNAKNTVYLQMNSLKPEDTAVYYCAVGGYAPLGRPYWGQGTQVTVSS” it was “low polyreactivity”.
Regarding “QVQLVESGGCLVQAGGSLRLSCAASGRIFVPNAMGWYRQAPGKERELVAAINWGGGSTYYADSVKGRFTISRDNAKNTVYLQMNSLKPEDTAVYYCAADHPYTMGVLPNQQFDYWGQGTQVTVSS”, the “polyreactivity (PSR sort gate)” value is “low polyreactivity”.
As to “QVQLVESGGGLVQAGGSLRLSCAASGRIFVDNTMGWYRQAPGKERELVAAISRRGTSTYYADSVKGRFTISRDTAKNTVFLQMNSLNPEDTAVYYCAADYYYYDSQQGMDYWGQGTQVTVSS”, the “polyreactivity (PSR sort gate)” value is given as “high polyreactivity”.
On to “QVQLVESSGGLVQAGVSLRLSFAASGRIILNYPIGLYRKAPGKERELVAAITSDGSRSYADSVKGRFTISRDNAKNSVYLQMKSLKPEDTAVYYCANDFFEHSRVSHTYSSSKYDYGGQGTQVTVSS”, for which the “polyreactivity (PSR sort gate)” value is “low polyreactivity”.
Regarding “QVQLVESGGGLVQAGGSLRLSCAASGFIFWIYAMGWYRQAPGKEREFVAVITYRGDTSYYADSVKGRFTISRDNAKNTVYLQMNSLKPEDTAVYYCAAYTVQKYGYWGQGTQVTVSS”, the “polyreactivity (PSR sort gate)” value is reported as “low polyreactivity”.
The same measure for “QVQLVESGGGLVQAGGSLSLSCAASGSIFGFNAMGWYRQAPGKERELVAAINNGGSTNYADSVKGRFTISRDNAKNTVYLQMNSLNPEDTSVYYCAAVGGWRWSNQDYRYPYYYWGQGTQVTVSS”: “high polyreactivity”; for “QVQLVESGGGLFQAGGSLRLSCAASGFTVRRYTMGWYRPATGKEREMVATISLSDGNTYYADSVKGRFTISRDNAKNTVYLQMNRLKAEDTAFYDCNAYSQSWNFYGDGDYWGQGTQVTVSS”: “low polyreactivity”; for “QVQLVESGGGLVQAGGSLRLSCAASGRIFGRYAMGWYRQAPGKERELVAGISARGGSTYYADSVKGRFTISRDNAKNTVYLQMNSLKPADTAVYYCAAAGYRGGGYWGQRTQVTVSS”: “high polyreactivity”.
Regarding “QVQLVESGGGLDQAGGSLRLICAASVRTFFVNAMGRYRQAPGKERELVATITFSGDSTYYADSVKGRFTISRDNAKNTVYLQMNSLKPADTAVYYCAAYQGQKGYDYWGQGTQVTVSS”, the “polyreactivity (PSR sort gate)” value is “high polyreactivity”.
In the case of “QVQLVESGGGLVQAGGSLRLICSASGTTFPVYVMGRYRHAPGKERELVAAISRSGTSTYYADSVKGRFTISRDNAKNTVYLQMNSLKPEDTAVYYCAAQLYGHGEDYWGQGTQVTVSS”, the “polyreactivity (PSR sort gate)” value was “high polyreactivity”.
In the case of “QVQLVESGGGLVQAGGSLRLSCAASGRTFYYNTMGWYRQAPGKERELVATITSSGGRTYYADSVKGRFTISRDNAKNTVYLQMNSLKPEDTAVYYCNAALSRAFKHSTGYDYWGQGTQVTVSS”, the “polyreactivity (PSR sort gate)” value is on record as “low polyreactivity”.
For the sequence “QVQLVESGGGLVQAGGSLRLSCAASGLTLGRYARGWYRQAPGKERELVAVITGGGSTNYADSVKGRFTISRDNSKNTVYLQMNSLKPEDTAVYYCAAARSPYKYSYWGQGTQVTVSS”, the “polyreactivity (PSR sort gate)” value is “high polyreactivity”.
In the case of “QVQLVESGGGLVQAGGSLRLSCAASGFTFSYYAMGWYRQAPGKERELVASISRSGNTYYADSVKGRFTISRDNAKNTFYLQMNSLKPEDTAVYYCAAKRKSYYSYNFDYWGQGTQVTVSS” it was “high polyreactivity”; in that of “QVQLVESGGGLVQAGGSLRLSCAASGRIFSVNVMVWYRQAPGKERELVAAITWSVGSTYYADSVKARFTISRDNAKYTVSLQMYSLKPEDTAVYYSAARVPPVYGRVGGYHYWGQGTQVTVSS”, “low polyreactivity”; in that of “QVQLVESGGGLVQAGGSLRLSCAASGRTCGSYAMGWYRQAPGKERELVAAISLSAGSTYYADSVKGRFTISRDNAKNTVYLQMNSLKPEDTAVYYCAAGTQWYSQVYIYYYWGQGTQVTVSS”, “low polyreactivity”.
